This note sets out measurements from patent US6033845.

The target of experiment [1] is maltose binding protein (Escherichia coli (strain K12)) [MBP: P0AEX9].
For experiment [2], the target named is 7B-maltose binding protein fusion protein (Feline Infectious Peritonitis Virus (Applicant's field isolate)) [MBP: P0AEX9]. Conditions: scale: colonies, mean less control, at 20 µg/ml 7B.

“white blood cells from a cat known to have clinical FIP (cat #88) (cells without a defined receptor)” had a No. of Colonies (T-cell colony stimulation, two days) (colonies, mean less control) in experiment [1] of -1. In experiment [2], this substance yielded a No. of Colonies (T-cell colony stimulation, two days) of 31.
